Data as given in publication PMC2965138, “DEB025 (Alisporivir) Inhibits Hepatitis C Virus Replication by Preventing a Cyclophilin A Induced Cis-Trans Isomerisation in Domain II of NS5A” (PLoS ONE, 2010).

Target: T1, Recombinant 15N-labelled CypA (UniProt P62937 1-165, 15N-labelled)
T1 construct: Cyclophilin A (CypA), peptidyl-prolyl cis-trans isomerase; also called 15N-CypA; source: recombinant, produced and purified as described previously [18]
Test: NMR titration; 15N-labelled CypA (100 µM) mixed with increasing concentrations of unlabelled peptide (0 to 2.5 mM); 1H,15N HSQC at each step; KD fitted from combined chemical shift perturbations
Conditions: both partners purified

Binder | Kd [mM]
KFPRAMPIWARPDYNPPLLE (NS5A domain II of hepatitis C virus genotype 1b (Con1), residues 308-327; numbers count on: NS5A itself; also called WT peptide; Pep-WT peptide; source: synthetic peptide, bought: Neosystems (Strasbourg, France), purity greater than 95%) [Pep-WT (residues 308-327 of NS5A from HCV GT1b Con1)] | 0.802
KFPRAMPIWARPEYNPPLLE (numbers count on: NS5A itself; also called D320E peptide; Pep-D320E peptide; source: synthetic peptide, bought: Neosystems (Strasbourg, France), purity greater than 95%) [Pep-D320E (residues 308-327 of NS5A from HCV GT1b Con1 with D320E)] | 1.23
